Ten molecules from patent US11471462B2, “Compositions and methods for detecting and treating diabetes” (THE BROAD INSTITUTE, INC., priority 2016, dated 2022) can be followed below.

Sequences and labels used below:
B1: BRAT1 (protein)
chain: MDPECAQLLPALCAVLVDPRQPVADDTCLEKLLDWFKTVTEGESSVVLLQEHPCLVELLSHVLKVQDLSSGVLSFSLRLAGTFAAQENCFQYLQQGELLPGLFGEPGPLGRATWAVPTVRSGWIQGLRSLAQHPSALRFLADHGAVDTIFSLQGDSSLFVASAASQLLVHVLALSMRGGAEGQPCLPGGDWPACAQKIMDHVEESLCSAATPKVTQALNVLTTTFGRCQSPWTEALWVRLSPRVACLLERDPIPAAHSFVDLLLCVARSPVFSSSDGSLWETVARALSCLGPTHMGPLALGILKLEHCPQALRTQAFQVLLQPLACVLKATVQAPGPPGLLDGTADDATTVDTLLASKSSCAGLLCRTLAHLEELQPLPQRPSPWPQASLLGATVTVLRLCDGSAAPASSVGGHLCGTLAGCVRVQRAALDFLGTLSQGTGPQELVTQALAVLLECLESPGSSPTVLKKAFQATLRWLLSSPKTPGCSDLGPLIPQFLRELFPVLQKRLCHPCWEVRDSALEFLTQLSRHWGGQADFRCALLASEVPQLALQLLQDPESYVRASAVTAMGQLSSQGLHAPTSPEHAEARQSLFLELLHILSVDSEGFPRRAVMQVFTEWLRDGHADAAQDTEQFVATVLQAASRDLDWEVRAQGLELALVFLGQTLGPPRTHCPYAVALPEVAPAQPLTEALRALCHVGLFDFAFCALFDCDRPVAQKSCDLLLFLRDKIASYSSLREARGSPNTASAEATLPRWRAGEQAQPPGDQEPEAVLAMLRSLDLEGLRSTLAESSDHVEKSPQSLLQDMLATGGFLQGDEADCY
B2: QIL1 (protein)
chain: MVARVWSLMRFLIKGSVAGGAVYLVYDQELLGPSDKSQAALQKAGEVVPPAMYQFSQYVCQQTGLQIPQLPAPPKIYFPIRDSWNAGIMTVMSALSVAPSKAREYSKEGWEYVKARTK
B3: DNAJC7 (protein)
chain: AAAAECDVVMAATEPELLDDQEAKREAETFKEQGNAYYAKKDYNEAYNYYTKAIDMCPKNASYYGNRAATLMMLGRFREALGDAQQSVRLDDSFVRGHLREGKCHLSLGNAMAACRSFQRALELDHKNAQAQQEFKNANAVMEYEKIAETDFEKRDFRKVVFCMDRALEFAPACHRFKILKAECLAMLGRYPEAQSVASDILRMDSTNADALYVRGLCLYYEDCIEKAVQFFVQALRMAPDHEKACIACRNAKALKAKKEDGNKAFKEGNYKLAYELYTEALGIDPNNIKTNAKLYCNRGTVNSKLRKLDDAIEDCTNAVKLDDTYIKAYLRRAQCYMDTEQYEEAVRDYEKVYQTEKTKEHKQLLKNAQLELKKSKRKDYYKILGVDKNASEDEIKKAYRKRALMHHPDRHSGASAEVQKEEEKKFKEVGEAFTILSDPKKKTRYDSGQDLDEEGMNMGDFDPNNIFKAFFGGPGGFSFEASGPGNFFFQFG
B4: PSMA3 (protein)
chain: SSIGTGYDLSASTFSPDGRVFQVEYAMKAVENSSTAIGIRCKDGVVFGVEKLVLSKLYEEGSNKRLFNVDRHVGMAVAGLLADARSLADIAREEASNFRSNFGYNIPLKHLADRVAMYVHAYTLYSAVRPFGCSFMLGSYSVNDGAQLYMIDPSGVSYGYWGCAIGKARQAAKTEIEKLQMKEMTCRDIVKEVAKIIYIVHDEVKDKAFELELSWVGELTNGRHEIVPKDIREEAEKYAKESLKEEDESDDDNM
B5: STT3A (protein)
chain: MTKFGFLRLSYEKQDTLLKLLILSMAAVLSFSTRLFAVLRFESVIHEFDPYFNYRTTRFLAEEGFYKFHNWFDDRAWYPLGRIIGGTIYPGLMITSAAIYHVLHFFHITIDIRNVCVFLAPLFSSFTTIVTYHLTKELKDAGAGLLAAAMIAVVPGYISRSVAGSYDNEGIAIFCMLLTYYMWIKAVKTGSICWAAKCALAYFYMVSSWGGYVFLINLIPLHVLVLMLTGRFSHRIYVAYCTVYCLGTILSMQISFVGFQPVLSSEHMAAFGVFGLCQIHAFVDYLRSKLNPQQFEVLFRSVISLVGFVLLTVGALLMLTGKISPWTGRFYSLLDPSYAKNNIPIIASVSEHQPTTWSSYYFDLQLLVFMFPVGLYYCFSNLSDARIFIIMYGVTSMYFSAVMVRLMLVLAPVMCILSGIGVSQVLSTYMKNLDISRPDKKSKKQQDSTYPIKNEVASGMILVMAFFLITYTFHSTWVTSEAYSSPSIVLSARGGDGSRIIFDDFREAYYWLRHNTPEDAKVMSWWDYGYQITAMANRTILVDNNTWNNTHISRVGQAMASTEEKAYEIMRELDVSYVLVIFGGLTGYSSDDINKFLWMVRIGGSTDTGKHIKENDYYTPTGEFRVDREGSPVLLNCLMYKMCYYRFGQVYTEAKRPPGFDRVRNAEIGNKDFELDVLEEAYTTEHWLVRIYKVKDLDNRGLSRT
B6: HEATR2 (protein)
chain: AALGVAEAVAAPHPAEGAETAEAVELSRALSRLLPGLEADSKPGRRRALEALRRALEEPGPAADPTAFQGPWARLLLPRLLRCLSDPAEGCRALAVHLLDLGLRRAARPRDALPRLLPALAARLAGPVPARRPPEACEELRLALVQLLGLAVDLCGAALAPHLDDALRALRCSLLDPFAAVRRESCSCAAALAQATPDHFHMQSESLIGPLMQTISHQHWKVRVAAIEATGAVIHFGNGKSVDDVLSHFAQRLFDDVPQVRRAVASVVGGWLLCLRDRYSFFHKLIPLLLSSLNDEVPEVRQLAASLWEDVGLQWQKENEEDLKDKLDFAPPTPPHYPPHERRPVLGCRELVFRNLSKILPALCHDITDWVVGTRVKSAQLLPVLLLHAEDHATQHLEVVLRTLFQACTDEEAAVVQSCTRSAELVGTFVSPEVFLKLILSTLKKTPSASGLLVLASAMRGCPREALQPHLAAIATELAQAHICQASENDLYLERLLLCVQALVSVCHEDCGVASLQLLDVLLTIVALAGATGLRDKAQETMDSLAMVEGVSSCQDLYRKHIGPLLERVTASHLDWTAHSPELLQFSVIVAQSGPALGEALPHVVPTLRACLQPSQDPQMRLKLFSILSTVLLRATDTINSQGQFPSYLETVTKDILAPNLQWHAGRTAAAIRTAAVSCLWALTSSEVLSAEQIRDVQETLMPQVLTTLEEDSKMTRLISCRIINTFLKTSGGMTDPEKLIRIYPELLKRLDDVSNDVRMAAASTLVTWLQCVKGANAKSYYQSSVQYLYRELLVHLDDPERAIQDAILEVLKEGSGLFPDLLVRETEAVIHKHRSATYCEQLLQHVQAVPATQ
B7: TUBA1C (protein)
chain: MTAWFNGVEELGRDECFVCLELDPSNGSFLNAKLYISNWILIYFTRTLQLPAPFNTCTSSKSRGEPGCDSKRECISIHVGQAGVQIGNACWELYCLEHGIQPDGQMPSDKTIGGGDDSFNTFFSETGAGKHVPRAVFVDLEPTVIDEVRTGTYRQLFHPEQLITGKEDAANNYARGHYTIGKEIIDLVLDRIRKLADQCTGLQGFLVFHSFGGGTGSGFTSLLMERLSVDYGKKSKLEFSIYPAPQVSTAVVEPYNSILTTHTTLEHSDCAFMVDNEAIYDICRRNLDIERPTYTNLNRLISQIVSSITASLRFDGALNVDLTEFQTNLVPYPRIHFPLATYAPVISAEKAYHEQLTVAEITNACFEPANQMVKCDPRHGKYMACCLLYRGDVVPKDVNAAIATIKTKRTIQFVDWCPTGFKVGINYQPPTVVPGGDLAKVQRAVCMLSNTTAVAEAWARLDHKFDLMYAKRAFVHWYVGEGMEEGEFSEAREDMAALEKDYEEVGADSADGEDEGEEY
B8: MAGED1 (protein)
chain: MAQKMDCGAGLLGFQNPDACRAVCHPLPQPPASTLPLSAFPTLCDPPYSQLRDPPAVLSCYCTPLGASPAPAEASVEDSALLMQTLMEAIQISEAPPTNQATAAASPQSSQPPTANEMADIQVSAAAARPKSAFKVQNATTKGPNGVYDFSQAHNAKDVPNTQPKAAFKSQNATPKGPNAAYDFSQAATTGELAANKSEMAFKAQNATTKVGPNATYNFSQSLNANDLANSRPKTPFKAWNDTTKAPTADTQTQNVNQAKMATSQADIETDPGISEPDGATAQTSADGSQAQNLESRTIIRGKRTRKINNLNVEENSSGDQRRAPLAAGTWRSAPVPVTTQNPPGAPPNVLWQTPLAWQNPSGWQNQTARQTPPARQSPPARQTPPAWQNPVAWQNPVIWPNPVIWQNPVIWPNPIVWPGPVVWPNPLAWQNPPGWQTPPGWQTPPGWQGPPDWQGPPDWPLPPDWPLPPDWPLPTDWPLPPDWIPADWPIPPDWQNLRPSPNLRPSPNSRASQNPGAAQPRDVALLQERANKLVKYLMLKDYTKVPIKRSEMLRDIIREYTDVYPEIIERACFVLEKKFGIQLKEIDKEEHLYILISTPESLAGILGTTKDTPKLGLLLVILGVIFMNGNRASEAVLWEALRKMGLRPGVRHPLLGDLRKLLTYEFVKQKYLDYRRVPNSNPPEYEFLWGLRSYHETSKMKVLRFIAEVQKRDPRDWTAQFMEAADEALDALDAAAAEAEARAEARTRMGIGDEAVSGPWSWDDIEFELLTWDEEGDFGDPWSRIPFTFWARYHQNARSRFPQTFAGPIIGPGGTASANFAANFGAIGFFWVE
B9: AUP1 (protein)
chain: MELPSGPGPERLFDSHRLPGDCFLLLVLLLYAPVGFCLLVLRLFLGIHVFLVSCALPDSVLRRFVVRTMCAVLGLVARQEDSGLRDHSVRVLISNHVTPFDHNIVNLLTTCSTPLLNSPPSFVCWSRGFMEMNGRGELVESLKRFCASTRLPPTPLLLFPEEEATNGREGLLRFSSWPFSIQDVVQPLTLQVQRPLVSVTVSDASWVSELLWSLFVPFTVYQVRWLRPVHRQLGEANEEFALRVQQLVAKELGQTGTRLTPADKAEHMKRQRHPRLRPQSAQSSFPPSPGPSPDVQLATLAQRVKEVLPHVPLGVIQRDLAKTGCVDLTITNLLEGAVAFMPEDITKGTQSLPTASASKFPSSGPVTPQPTALTFAKSSWARQESLQERKQALYEYARRRFTERRAQEAD
B10: TUBA4A (protein)
chain: MRECISVHVGQAGVQMGNACWELYCLEHGIQPDGQMPSDKTIGGGDDSFTTFFCETGAGKHVPRAVFVDLEPTVIDEIRNGPYRQLFHPEQLITGKEDAANNYARGHYTIGKEIIDPVLDRIRKLSDQCTGLQGFLVFHSFGGGTGSGFTSLLMERLSVDYGKKSKLEFSIYPAPQVSTAVVEPYNSILTTHTTLEHSDCAFMVDNEAIYDICRRNLDIERPTYTNLNRLISQIVSSITASLRFDGALNVDLTEFQTNLVPYPRIHFPLATYAPVISAEKAYHEQLSVAEITNACFEPANQMVKCDPRHGKYMACCLLYRGDVVPKDVNAAIAAIKTKRSIQFVDWCPTGFKVGINYQPPTVVPGGDLAKVQRAVCMLSNTTAIAEAWARLDHKFDLMYAKRAFVHWYVGEGMEEGEFSEAREDMAALEKDYEEVGIDSYEDEDEGEE

The test system of the experiment is SLC16A11. The experiment can be described thus: SLC16A11 protein-protein interaction study (immunoprecipitation, quantitative mass spectrometry). Also on record: species or system human. As to conditions: putative SLC16A11^REF interaction partners; immunoprecipitation from HEK293T cells vs empty vector control; Blandt-Altman.
With B1, the “BA log fold change” value is given as 1.04.

As for B2, the “BA log fold change” value came out at 1.08.

B3: the “BA log fold change” value was 1.05.

Take B4: the “BA log fold change” value amounted to 1.09.

In the case of B5, the “BA log fold change” value is recorded as 1.27.

Consider B6, for which the “BA log fold change” value came out at 1.03.

With B7, the “BA log fold change” value was determined as 1.04.

On to B8, for which the “BA log fold change” value turned out to be 1.09.

On to B9, for which the “BA log fold change” value was 1.10.

Consider B10, for which the “BA log fold change” value is 1.02.
